What all share (assay type): in vivo
Test [1] has as its system swine model of myocardial infarction. The test is described as follows: Myocardial infarct size by Evan's blue/TTC staining, swine model of myocardial infarction (1 h LAD occlusion, 5 d reperfusion). As to conditions: 5d post-reperfusion, TTC staining; i.v. N2 4.6 mg/kg 5 min or murine 21G6 mAb 2 mg/kg 30 min prior to reperfusion. As to the method:
FIG. 2A to 2C are plots showing that N2 peptide and murine 21G6 mAb reduce infarct size in a swine model of myocardial infarction. Swine were subjected to 1 h LAD occlusion and 5 d reperfusion. Prior to reperfusion either saline, N2 (4.6 mg/kg), or murine 21G6 mAb (2 mg/kg) was injected i.v. into the swine. Following 5 d reperfusion, myocardial sections were stained with Evan's blue and TTC. (A) Myocardial infarct size expressed as a percentage of the left ventricle (LV). (B) Percentage of area at risk (AAR) to the LV. (C) Myocardial infarct size expressed as a percentage of the AAR. # represents p<0.05; ## represents p<0.01; ### represents p<0.001. Each symbol represents data from one animal. (Note: Due to poor perfusion with Evan's blue dye in one animal, n=5 in panels B and C). […] Saline-treated animals developed approximately a 20% infarct of the left ventricle as assessed by TTC staining at 5d post-reperfusion as predicted.

Test [2] shares this test system. The test is described as follows: Serum cardiac troponin-T (cTnT) levels, swine model of myocardial infarction. To be noted: N2 4.6 mg/kg or m21G6 2 mg/kg i.v. prior to reperfusion; for reduction of peak serum cTnT levels as compared to saline controls: 8-120 h post-reperfusion; for reduction of cTnT AUC values as compared to saline controls: five day reperfusion period. As to the method: FIGS. 3A and 3B are plots showing the effect of N2 peptide and murine 21G6 mAb (m21G6) on serum cardiac troponin-T (cTnT) levels. Swine were subjected to 1 h LAD occlusion and 5 d reperfusion. Prior to reperfusion either saline, N2 (4.6 mg/kg), or m21G6 (2 mg/kg) was injected i.v. into the swine. Serum samples were taken at several time points as described in text and analyzed for cTnT. (A) Peak cTnT levels. (B) cTnT levels over 5d reperfusion. # represents p<0.05; ## represents p<0.01. Each symbol represents data from one animal. Cardiac troponin-T (cTnT), a well-established marker for cardiac tissue injury, from 8-120 h post-reperfusion, was also analyzed. […] Saline-treated animals developed approximately a 20% infarct of the left ventricle as assessed by TTC staining at 5d post-reperfusion as predicted • Serial EKGs to document ST elevation • Angiogram q20 min to confirm complete occlusion • Lidocaine and defibrillation as needed • Administration of control vs. N2 peptide 5 minutes prior to reperfusion or mAb 21G6 30 minutes before reperfusion • Measure trend in cardiac enzymes (CK, cTnT) • Cardiectomy on Day 5 or Day 21 via cardioplegic arrest • LAD ligation at site of occlusion followed by injection of Evans blue dye via aortic cannula gives estimate of Area At Risk (AAR) • Incubation of transverse sections in TTC for 15 min at 37° C. • Calculate % infarction by computerized planimetry • 21G6 Alexa 568(1 mg/ml) infusion was initiated 2 min prior to reperfusion at ≈1 m1/min for ≈30 min via coronary catheter (results shown in FIG. 1 showing localization of the antibody to the injured left ventricle and not to the uninjured right ventricle) • Heart was perfused with cardioplegic solution 1 h post-ischemia, harvested, sectioned, and punch biopsies taken in the area at risk and in right ventricle • Sections were stained with anti-swine CD31 FITC (Serotec) 1/20 dilution • Using a fluoroscopically guided balloon catheter approach, the left anterior descending coronary artery (LAD) was occluded for 60 min at a defined point distal to the 2nd and 3rd diagonal branches. Saline-treated animals developed approximately a 20% infarct of the left ventricle as assessed by TTC staining at 5d post-reperfusion as predicted.

Test [3] concerns porcine model of myocardial infarction. The test can be described thus: Cardiac function (LVEF, fractional shortening) by echocardiography, porcine model of myocardial infarction. To be noted: for increase in EF compared to saline controls at the same time point: 21 days post-reperfusion, 3D TTE, n of 3 per group; for ejection fraction (EF) 21 d post-reperfusion: Quinones method; for ejection fraction (EF) 21 d post-reperfusion / LVEF at baseline: n=3/group; for recovery of cardiac function by fractional shortening (FS) compared to baseline: 21d reperfusion period; for LVEF at baseline: baseline (prior to occlusion procedure). The source says: FIG. 4A to 4C are graphs showing measurements of cardiac function by echocardiography. (A) Non-corrected % LVEF as measured by 2D TTE at 21d post-reperfusion compared to baseline using Quinones method (described below in the Examples section). (B) % LVEF as measured by 3D TTE at 21d post-reperfusion. (C) Fractional shortening as measured by 2D TTE at 21d post-reperfusion compared to baseline. # represents a p<0.05. n=3/group.
To determine the effect of N2 peptide and the 21G6 antibody treatment on cardiac function, echocardiography was employed. Echocardiography is widely accepted for evaluation of cardiac function and is utilized in emergency and operating rooms as well as intensive care departments in most hospitals. Ventricular function as assessed by echocardiography is accompanied by low intra-observer and inter-observer variability and assessment of left ventricular ejection fraction remains the standard of care in clinical practice. In addition, fractional shortening (FS), another measure of left ventricular function, was also calculated based on two-dimensional (2D) measurements at all time points measured at mid-ventricle and is defined as the difference between end-diastolic and end-systolic dimensions divided by end-diastolic dimension.
For animals in which functional data was generated (N2: n of 3, murine 21G6 mAb: n of 3, Saline: n of 3), cardiac imaging was performed via transthoracic echocardiography (TTE) at baseline (prior to occlusion procedure), and then up to 21d following reperfusion. For baseline TTE images were obtained using a high-frequency 2D probe and a Philips iE33 xMATRIX scanner (Andover, Mass.). Prior to sacrifice at 21 days, both 2D and 3D epicardial echocardiography images were obtained after median sternotomy was performed. 3D volumetric data sets were ECG-gated from 4-7 consecutive heartbeats. Additionally, 3D left ventricular volumes and ejection fractions were computed from the epicardial 3D datasets.
Prior to the occlusion procedure, a baseline TTE image was recorded. Afterwards, TTE was performed. Animals were treated in an identical manner as in the 5 day study for the catheterization procedure except that animals were maintained for an additional 16 days. The echocardiographer was blinded to the treatment schedule.
At baseline, saline, N2- and murine 21G6 mAb -treated animals had LVEFs of 53%, 52.6%, and 51%, respectively.
• Intravenous amiodarone infusion (1 mg/min) • Systemic heparinization (˜150 units/kg) • Percutaneously access of LAD via right (R) femoral artery • Occlusion mid-LAD with balloon catheter for 60 min as follows: Using a fluoroscopically guided balloon catheter approach, the left anterior descending coronary artery (LAD) was occluded for 60 min at a defined point distal to the 2nd and 3rd diagonal branches. […]

As to LMKNMDPLNDNV [N2 peptide], in test [1], the “reduction of infarct size as a percentage of the area at risk (AAR)” value was 31%. In addition, in test [2], the “reduction of peak serum cTnT levels as compared to saline controls” value is “no effect” and the “reduction of cTnT AUC values as compared to saline controls” value is “no effect”. Moreover, the “increase in EF compared to saline controls at the same time point” value in test [3] was 29%. Further, in test [3] (2D TTE), the “ejection fraction (EF) 21 d post-reperfusion” value is given as 52.0%, the “recovery of cardiac function by fractional shortening (FS) compared to baseline” value worked out at 98.8% and the LVEF at baseline amounted to 52.6%.

B1: murine 21G6 mAb: murine anti-N2 monoclonal antibody from hybridoma ATCC Accession Number PTA-9393 (antibody, V domains shown)
VH: QVQLQQPGAELVKPGASVKLSCKASGYTFTSYYMYWVKQRPGQGLEWIGGINPSNGGTNFNEKFKSKATLTVDKSSSTAYMQLSSLTSEDSAVYYCTRWGYDREWFAYWGQGTLVTVSA
VL: DIVMTQAAPSVPVTPGESVSISCRSSKSLLHSNGNTYLYWFLQRPGQSPQVLIYRMSNLASGVPDRFSGSGSGTAFTLRISRVEAEDVGVYYCMQHLEYPFTFGSGTKLEIKR
As to B1, in test [1], the “reduction of infarct size as a percentage of the area at risk (AAR)” value was determined as 49%. In test [2], the “reduction of peak serum cTnT levels as compared to saline controls” value stood at 60% and the “reduction of cTnT AUC values as compared to saline controls” value is recorded as 47%. Further, the “increase in EF compared to saline controls at the same time point” value in test [3] is listed as 21%. Further, the “recovery of cardiac function (LVEF at 21 d relative to baseline)” value in test [3] (21 d post-reperfusion vs baseline, 2D TTE, saline-treated 74.7%) turned out to be 98.8%. In test [3] (2D TTE), the “ejection fraction (EF) 21 d post-reperfusion” value is reported as 50.4%, the “recovery of cardiac function by fractional shortening (FS) compared to baseline” value worked out at 99.4% and the LVEF at baseline is on record as 51%.

The values above are taken from US20150284453A1, “METHOD OF PROTECTING CARDIAC FUNCTION” (Declmmune Therapeutics, Inc., priority 2012, published 2015).
